# Laboratory results from FireProtDB.
# “And” between values parts separate entries of the source, which are not always exact repeats. Identical values can stand only once.
# [1] = Escherichia coli, pH 7, Thermal, CD, phosphate 50 mM, reversible: yes
# [2] = Homo sapiens, pH 7.6, Thermal, CD, Sodium phosphate 20 mM, NaCl 0.1 M, reversible: no, structure 1OWA
# [3] = Homo sapiens, pH 5, 25 °C, Urea, Fluorescence, Sodium acetate 50 mM, reversible: yes, structure 1TEN
# [4] = Homo sapiens, pH 7.3, 25 °C, GdnHCl, Fluorescence, Na2HPO4/NaH2PO4 20 mM, structure 1TIT
# [5] = Homo sapiens, pH 7.4, 25 °C, GdnHCl, CD, PBS, structure 1TIT
# [6] = Mus musculus, pH 6.88, 5 °C, Pressure, NMR, Tris 20 mM, reversible: yes, structure 1MBG
# [7] = Salmo salar, pH 7.1, Thermal, CD, HEPES 10 mM, NaCl MgCl2 30 mM 3mM
# Chain of Tropomyosin alpha-1 chain G24A, Q91472 (Q91472 entry or part of it G24A | G24A): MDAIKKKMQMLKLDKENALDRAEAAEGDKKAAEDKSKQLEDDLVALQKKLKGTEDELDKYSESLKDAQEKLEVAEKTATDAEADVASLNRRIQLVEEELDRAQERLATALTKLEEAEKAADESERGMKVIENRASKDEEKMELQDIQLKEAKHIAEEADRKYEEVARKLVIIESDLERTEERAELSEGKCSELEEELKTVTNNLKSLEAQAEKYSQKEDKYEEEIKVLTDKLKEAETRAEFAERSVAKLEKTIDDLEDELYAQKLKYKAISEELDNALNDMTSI
# Chain of Tropomyosin alpha-1 chain G24A|G27A, Q91472 G24A G27A (Q91472 entry or part of it G24A|G27A | G24A G27A): as the sequence (Q91472 entry or part of it G24A | G24A) above, with G27A counted along it
# Chain of Tropomyosin alpha-1 chain G27A, Q91472 (Q91472 entry or part of it G27A | G27A): as the sequence (Q91472 entry or part of it G24A | G24A) above, with A24G, G27A counted along it
# Chain of Transcriptional activator Myb V103L, P06876 (P06876 whole entry V103L): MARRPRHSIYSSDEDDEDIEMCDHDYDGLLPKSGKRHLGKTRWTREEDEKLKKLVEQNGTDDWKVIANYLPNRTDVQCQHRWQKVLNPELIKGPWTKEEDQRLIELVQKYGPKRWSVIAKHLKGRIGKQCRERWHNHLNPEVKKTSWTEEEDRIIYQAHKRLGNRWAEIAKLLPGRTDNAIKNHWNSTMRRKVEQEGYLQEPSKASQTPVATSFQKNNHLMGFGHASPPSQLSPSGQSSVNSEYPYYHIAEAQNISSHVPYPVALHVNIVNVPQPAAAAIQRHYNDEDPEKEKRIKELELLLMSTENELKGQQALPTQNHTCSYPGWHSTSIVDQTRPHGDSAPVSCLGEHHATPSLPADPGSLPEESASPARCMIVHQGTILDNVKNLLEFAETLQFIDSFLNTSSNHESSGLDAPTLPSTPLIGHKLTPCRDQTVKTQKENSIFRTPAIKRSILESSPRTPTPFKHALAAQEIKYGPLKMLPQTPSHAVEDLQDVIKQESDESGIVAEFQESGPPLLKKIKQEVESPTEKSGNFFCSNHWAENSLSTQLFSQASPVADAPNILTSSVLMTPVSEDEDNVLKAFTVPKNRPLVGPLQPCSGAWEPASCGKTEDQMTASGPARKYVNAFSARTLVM
# Chain of Tropomyosin alpha-1 chain wild type, Q91472 (Q91472 entry or part of it): as the sequence (Q91472 entry or part of it G24A | G24A) above, with A24G counted along it
substance,measurement,setting,value
"Soluble cytochrome b562 wild type, P0ABE7",unfolding free energy,"Escherichia coli, pH 7, 20 °C, Urea, CD, Potassium phosphate 50 mM, reversible: yes",6.6 kcal/mol and 3.2 kcal/mol
same,heat capacity change of unfolding,[1],2.4 kcal/mol/K and 1.1 kcal/mol/K
same,unfolding enthalpy (van 't Hoff),[1],94 kcal/mol and 53 kcal/mol
"Spectrin alpha chain, erythrocytic 1, P02549 A2023V",Tm,[2],60.5 °C
same,"change of melting temperature, mutant - wild type (higher = more stable)",[2],-2 °C
"Tenascin, P24821 Y869A",ddG of mutation (higher = less stable),[3],-1.88 kcal/mol
"Tenascin, P24821 Y869F",ddG of mutation (higher = less stable),[3],-3.22 kcal/mol
"Titin C12723S|C12739S, Q8WZ42 C12723S C12739S",ddG of mutation (higher = less stable),[4],-3.2 kcal/mol
same,denaturant m value,[4],2.8 kcal/mol/M
"Titin F12749L, Q8WZ42",ddG of mutation (higher = less stable),[5],3.06 kcal/mol
"Titin I12699A, Q8WZ42",ddG of mutation (higher = less stable),[5],2.89 kcal/mol
"Titin L12717A, Q8WZ42",ddG of mutation (higher = less stable),[5],2.67 kcal/mol
"Titin L12736A, Q8WZ42",ddG of mutation (higher = less stable),[5],5.27 kcal/mol
"Titin V12689A, Q8WZ42",ddG of mutation (higher = less stable),[5],2.37 kcal/mol
"Titin V12762A, Q8WZ42",ddG of mutation (higher = less stable),[5],4.78 kcal/mol
"Transcriptional activator Myb V103L, P06876",ddG of mutation (higher = less stable),[6],-0.48 kcal/mol
same,unfolding free energy,[6],1.75 kcal/mol
"Tropomyosin alpha-1 chain G24A, Q91472",Tm,[7],36.9 °C
same,"change of melting temperature, mutant - wild type (higher = more stable)",[7],-0.1 °C
"Tropomyosin alpha-1 chain G24A|G27A, Q91472 G24A G27A",Tm,[7],38.1 °C
same,"change of melting temperature, mutant - wild type (higher = more stable)",[7],1.1 °C
"Tropomyosin alpha-1 chain G27A, Q91472",Tm,[7],37.3 °C
same,"change of melting temperature, mutant - wild type (higher = more stable)",[7],0.3 °C
"Tropomyosin alpha-1 chain wild type, Q91472",Tm,[7],37 °C
"Twitchin, Q23551 Y4220F",ddG of mutation (higher = less stable),"Caenorhabditis elegans, pH 7, 20 °C, Urea, Fluorescence, Sodium phosphate 50 mM, reversible: yes, structure 1WIT",-2.15 kcal/mol
